This note sets out measurements from patent US20260193293A1, “PEPTIDES CAPABLE OF INHIBITING PROTEIN-PROTEIN INTERACTIONS AT GABAB1A SUBUNIT AND USES THEREOF” (UNIVERSITY OF COPENHAGEN, priority 2022, published 2026).

Non-standard residues stand in square brackets, D forms with d. 2Nal = N[C@@H](Cc1ccc2ccccc2c1)C(=O)O

B1: R4-21 (Ac-RRRREDDD(2Nala)…-NH2) (peptide)
peptide: Ac-RRRREDDD[2Nal]IDWGPTSDDD-NH2
SMILES: CC[C@H](C)[C@H](NC(=O)[C@H](Cc1ccc2ccccc2c1)NC(=O)[C@H](CC(=O)O)NC(=O)[C@H](CC(=O)O)NC(=O)[C@H](CC(=O)O)NC(=O)[C@H](CCC(=O)O)NC(=O)[C@H](CCCNC(=N)N)NC(=O)[C@H](CCCNC(=N)N)NC(=O)[C@H](CCCNC(=N)N)NC(=O)[C@H](CCCNC(=N)N)NC(C)=O)C(=O)N[C@@H](CC(=O)O)C(=O)N[C@@H](Cc1c[nH]c2ccccc12)C(=O)NCC(=O)N1CCC[C@H]1C(=O)N[C@H](C(=O)N[C@@H](CO)C(=O)N[C@@H](CC(=O)O)C(=O)N[C@@H](CC(=O)O)C(=O)N[C@@H](CC(=O)O)C(N)=O)[C@@H](C)O

Sushi domains (SD1/2) protein of GABAB1a (GB1a), sequence (Q9Z0U4 29-158): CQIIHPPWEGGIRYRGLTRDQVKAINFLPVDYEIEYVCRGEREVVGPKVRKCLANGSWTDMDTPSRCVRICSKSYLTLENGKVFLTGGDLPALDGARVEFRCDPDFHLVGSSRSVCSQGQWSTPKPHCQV

One test has as its target Sushi domains (SD1/2) protein of GABAB1a (GB1a). Briefly: FP competition vs TAMRA AJAP-1probe.
The Ki is a dissociation constant, usually derived from enzyme kinetics or from competition with a known ligand. Ac-ETSFIAWGPTGDED-NH2 gave a Ki of 34 nM.
Same read-out and setting: with Ac-ETEFIAWHPTGDED-NH2 the figure was 240 nM.
The same measure, in the same setting: with Ac-ETEFIAWYPTGDED-NH2 the figure was 199 nM.
Still for that read-out and setting: the same measure for Ac-ETEWIAWGPTGDED-NH2: 35 nM.
In the case of Ac-ETEFIDWGPTGDED-NH2 [peptide 26], the inhibition constant Ki turned out to be 9 nM.
The molecule Ac-ETEFIHWGPTGDED-NH2 came in with an inhibitory constant (Ki) of 24 nM.
Same read-out and setting: the same measure for Ac-RTEFIAWGPTGDED-NH2: 87 nM; for Ac-ETEFIVWGPTGDED-NH2: 30 nM; for Ac-ETEFIAWGPFGDED-NH2: 40 nM.
The molecule Ac-ETEYIAWGPTGDED-NH2 showed an inhibitory constant (Ki) of 18 nM.
On the same count and under the same terms, the same measure for Ac-NTEFIAWGPTGDED-NH2: 62 nM; for Ac-ETDFIAWGPTGDED-NH2: 26 nM.
Ac-EVEFIAWGPTGDED-NH2 returned an inhibitory constant (Ki) of 28 nM.

In a further test the target is Sushi domains (SD1/2) protein of the GABAB1a (GB1a) subunit, recombinant. Nature of the test: FP competition.
Sushi domains (SD1/2) protein of the GABAB1a (GB1a) subunit, recombinant, sequence (Q9Z0U4 29-158): as above
Take Ac-RRRRRRRREAAAKEDDDWIDWGPTSDDD-NH2 [R8-RL-17 (…)]: the Ki was determined as 105 nM.
The same measure, in the same setting: with B1 the figure was 13 nM; with Ac-RRRRRRRREDDDWIDWGPTSDDD-NH2 [R8-17 (Ac-…-NH2)], 58 nM.
As for Ac-EDDDWIDWYDSDDDGGGGSRRRRRRRR-NH2 [16-FL-R8 (…)], the Ki was 118 nM.
The same measure, in the same setting: the same measure for Ac-EDDDWIDWGPTSDDDRRRRRRRR-NH2 [17-R8 (…)]: 123 nM; for Ac-EDDDWIDWGPTSDDDEAAAKRRRRRRRR-NH2 [17-RL-R8 (…)]: 139 nM.
The same measure, in the same setting: with Ac-RRRRRRRRGGGGSEDDDWIDWGPTSDDD-NH2 [R8-FL-17 (…)] the figure was 140 nM; with Ac-EDDDWIDWGPTSDDDGGGGSRRRRRRRR-NH2 [17-FL-R8 (…)], 147 nM.
